PMC4151697 (Biochemistry, 2014)
Positions count from the first letter of the chain named. Names may count otherwise.

B1: Cp149-C61S (Cp149 with C61 mutated to serine) (domain or fragment, hepatitis B virus, UniProt P03147 1-149, looked up)
chain: MDIDPYKEFGATVELLSFLPSDFFPSVRDLLDTAAALYRDALESPEHCSPHHTALRQAILSWGDLMTLATWVGTNLEDPASRDLVVSYVNTNVGLKFRQLLWFHISCLTFGRETVLEYLVSFGVWIRTPPAYRPPNAPILSTLPETTVV
B2: Cp149re-red (partially re-reduced Cp149ox) (domain or fragment, hepatitis B virus, UniProt P03147 1-149, looked up)
chain: B1 chain with S61C
modifications: intradimer C61–C61 disulfide in most dimers (only ∼20% of Cp149ox could be reduced)
B3: Cp149red (reduced HBV core protein assembly domain, amino acids 1–149, homodimer) (domain or fragment, hepatitis B virus, UniProt P03147 1-149, looked up)
chain: B1 chain with S61C
B4: Cp149ox (fully oxidized Cp149 dimer with the intradimer C61–C61 disulfide) (domain or fragment, hepatitis B virus, UniProt P03147 1-149, looked up)
chain: B1 chain with S61C
modifications: intradimer C61–C61 disulfide (fully oxidized)

Assays:
SEC [1] = molecular target: the molecule itself; assay: SEC
light scattering = molecular target: the molecule itself; assay: light scattering
SEC [2] = molecular target: the molecule itself; assay: SEC; remark: listed apart in the source

Protein | pseudocritical concentration (SEC [1]) [µM] | amount of capsid relative to Cp149red (light scattering) [%] | fold slower elongation rate constant than Cp149red (light scattering) [fold] | Kd (SEC [2]) [µM]
B1 | 5.9 | – | – | –
B2 | 6.5 | – | – | –
B3 | 4.7 | – | – | –
B4 | – | ~40 | 1.7 | 4 ± 0.2
